This note sets out measurements from publication PMC11281603.

This experiment concerns the target polymeric Ig receptor (pIgR) fused to the FLAG tag (UniProt P01833). As to conditions: parent: 1.00.
Sequence of UniProt P01833 (P01833 19-764): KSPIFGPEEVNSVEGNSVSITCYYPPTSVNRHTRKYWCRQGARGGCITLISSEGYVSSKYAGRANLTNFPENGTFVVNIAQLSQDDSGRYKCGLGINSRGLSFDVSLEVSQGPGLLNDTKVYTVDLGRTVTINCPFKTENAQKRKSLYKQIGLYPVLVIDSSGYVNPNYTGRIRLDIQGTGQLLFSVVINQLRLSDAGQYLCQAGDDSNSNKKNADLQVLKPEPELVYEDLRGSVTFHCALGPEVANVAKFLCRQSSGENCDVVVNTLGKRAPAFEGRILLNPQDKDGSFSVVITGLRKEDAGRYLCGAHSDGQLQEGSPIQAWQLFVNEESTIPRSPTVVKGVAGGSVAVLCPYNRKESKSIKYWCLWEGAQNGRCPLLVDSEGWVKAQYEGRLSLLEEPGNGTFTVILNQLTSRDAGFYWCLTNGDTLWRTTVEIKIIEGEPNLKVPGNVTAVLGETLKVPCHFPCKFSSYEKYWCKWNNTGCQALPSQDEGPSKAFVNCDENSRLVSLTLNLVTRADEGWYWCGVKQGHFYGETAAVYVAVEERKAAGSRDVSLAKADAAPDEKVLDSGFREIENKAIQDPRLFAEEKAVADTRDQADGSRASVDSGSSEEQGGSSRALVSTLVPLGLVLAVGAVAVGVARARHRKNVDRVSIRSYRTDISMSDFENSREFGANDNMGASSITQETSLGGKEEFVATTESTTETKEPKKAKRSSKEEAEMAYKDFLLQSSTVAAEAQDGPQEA

For the substance “WT SARS-CoV-2 ORF8 fused to a C-terminal Strep-II tag (from UniProt P0DTC8) C20A”, the ratio to parent amounted to 0.43.
“WT SARS-CoV-2 ORF8 fused to a C-terminal Strep-II tag (from UniProt P0DTC8) R115A”: the ratio to parent came out at 1.
